One block for each binder: values may come before it.
Columns and labels:
[1] = target: T1, mouse neutrophil elastase (mouse, UniProt Q3UP87 29-265, limits assumed); test: enzymatic assay, substrate MeOSuc-Ala-Ala-Pro-Val-AMC, Morrison equation for tight binders, N=6
T1 construct: also called mNE; murine elastase
T1 sequence (looked up): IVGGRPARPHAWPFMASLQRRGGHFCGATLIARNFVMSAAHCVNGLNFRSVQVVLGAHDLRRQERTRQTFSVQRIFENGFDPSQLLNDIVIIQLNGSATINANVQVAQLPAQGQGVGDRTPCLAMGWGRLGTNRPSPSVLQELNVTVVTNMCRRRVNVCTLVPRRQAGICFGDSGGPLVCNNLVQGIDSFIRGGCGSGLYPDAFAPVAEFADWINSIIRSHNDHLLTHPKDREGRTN
Protocol: The substrate used were Succinyl-Ala-Ala-Ala-paraNitroAnilide (1 mM in 0.1 M Tris pH 7.5 with NaCl 0.5 M and NaN3 0.01%, % w/v from Sigma-Aldrich) for pPE, MeOSuc-Ala-Ala-Pro-Val-AMC (100 μM in Tris 50 mM, NaCl 1 M, 0.05% (% w/v) Brij-35, pH 7.5) for mNE, N-Succinyl-Ala-Ala-Pro-Phe p-nitroanilide (0.45 mM in 100 mM HEPES pH 7.5, from Sigma Aldrich) for hCG and Boc-Ala-Ala-Nva-SBzl (0.22 mM in 100 mM MOPS pH 5.0 0.5 M NaCl, 100 μM DTNB, DMSO 10%, from EPC) for PR3. mNE (rmELA2 from R&D systems, United Kingdom) was first activated according to the supplier information. In brief, mNE was incubated with recombinant mouse active cathepsin C/DPPIy (rmCathepsin C from R&D systems) in MES 50 mM, NaCl 50 mM, pH 5.5 for 2 h at 37° C. […] The hydrolysis of the substrate and the determination of the residual activity were carried out as explained above for the inhibition of hNE.

[2] = target: T2, human neutrophil elastase (human, UniProt P08246 30-247, glycans (NAG-NAG-FUC) at N109 and N204, chymotrypsinogen numbering, seen in the crystal); test: cell-based or functional assay
T2 sequence: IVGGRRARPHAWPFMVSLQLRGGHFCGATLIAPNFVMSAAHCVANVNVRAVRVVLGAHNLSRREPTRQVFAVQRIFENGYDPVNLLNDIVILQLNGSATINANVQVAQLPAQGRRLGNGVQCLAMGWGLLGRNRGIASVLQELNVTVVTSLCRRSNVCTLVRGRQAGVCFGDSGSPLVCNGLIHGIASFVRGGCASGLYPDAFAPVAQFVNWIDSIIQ

[3] = target: T1, mouse neutrophil elastase; test: cell-based or functional assay
[4] = target: T3, human proteinase 3 (human, UniProt P24158 28-248); test: cell-based or functional assay
T3 sequence (looked up): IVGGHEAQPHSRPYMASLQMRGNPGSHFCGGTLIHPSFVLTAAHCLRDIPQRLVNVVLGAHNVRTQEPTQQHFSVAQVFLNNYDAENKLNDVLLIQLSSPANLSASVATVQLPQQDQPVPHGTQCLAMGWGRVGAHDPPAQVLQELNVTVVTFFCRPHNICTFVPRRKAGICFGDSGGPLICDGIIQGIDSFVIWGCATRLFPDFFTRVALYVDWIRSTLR

[5] = target: T2, human neutrophil elastase; test: cell-based or functional assay; remark: listed apart in the source
[6] = target: T2, human neutrophil elastase; test: enzymatic assay, substrate N-Succinyl-Ala-Ala-Ala-pNA, Morrison equation for tight binders, N=3
Protocol: Inhibition of the hydrolysis of a chromogenic substrate. […] Briefly, hNE (Elastin products company, EPC, United States) was resuspended at 1 mg·mL⁻¹ in 50 mM sodium acetate buffer pH 5 containing 100 mM NaCl and stored at 4° C. The substrate Succinyl-Ala-Ala-Ala-paraNitroAnilide was dissolved at 1 mM in 0.1 M Tris pH 7.5 with NaCl 0.5 M and NaN3 0.01% (% w/v) and stored at 4° C. 230 μl of substrate (1 mM) were mixed with 10 μl of Bovine Serum Albumin 9 μM (BSA, Sigma-Aldrich, Germany) and incubated 20 min at 25° C. in a clear flat bottom 96-well plate (Greiner Bio-One, Belgium). […] Immediately after, the hNE was added to the mix at a final concentration of 50 nM. […] The initial velocity determined in the presence of the ISVD at different Nb: hNE ratios was compared to that measured in the absence of the ISVD, to determine the residual activity. The delay between the addition of hNE and the first measurement was about 100 seconds. […] In some experiments, the ISVD was preincubated for 15 minutes with the hNE and the complex was added to the substrate.
The Kᵢ was calculated averaging three Kᵢ of three independent curves, each curve representing experiment carried out with a different lot of production of the Nb.

[7] = target: T1, mouse neutrophil elastase; test: BLI (Octet HTX), NbE201_Cter Biot on streptavidin sensor, mNE as analyte, 1:1 fit, N=1
Protocol: FIG. 9. […] On the x-axis, the time in seconds. On the y-axis, the interference signal in nm. The dashed line separates the association step from the dissociation step. In black, the experimental signal. In grey, the fitting using a 1:1 model. The mNE concentrations tested are 100-50-25-12.5-6.25-3.125 nM, from top to bottom. Association and dissociation kinetics were measured for 300 s and 600 s respectively. The obtained sensorgrams were fitted to a 1:1 model by using the Data Analysis Octet Software Version 10.0 (Sartorius) to derive the rate constants for association (kₒₙ) and dissociation (koff) and the equilibrium dissociation constant (KD=koff/kₒₙ).
(§1) Then, the biosensors were immersed in a solution of hNE at different concentrations ([…]-0.753 nM). Association and dissociation kinetics were measured for 180 s and 300 s respectively, in 10×KB buffer. All the experiments were carried out at 30° C. in 96-wells or 384-wells black-bottom microplates in polypropylene (Greiner Bio-One, Belgium) and with orbital agitation (1500 rpm). The sensorgrams obtained were fitted globally to a 1:1 model to derive the rate constants for association (kₒₙ) and dissociation (koff) and the equilibrium dissociation constant (KD=koff/kₒₙ). […] were carried out. The error on KD was calculated using the following equation: […]

[8] = target: T2, human neutrophil elastase; test: BLI, comparison of the values in Table 2
[9] = target: T3, human proteinase 3; test: BLI, biotinylated NbE201 on streptavidin sensors, protease in solution
Protocol: (§2) The biosensors were then immersed in a 50 nM solution of a serine protease. The proteases tested were human cathepsin G (hCG), human proteinase 3 (hPR3), mouse pancreatic elastase (mPE), mouse neutrophil elastase (mNE) and porcine pancreatic elastase (pPE). hNE was used a positive control. The association and dissociation were measured for 70 s and 320 s respectively, in kinetic buffer (KB, Sartorius). The experiments were carried out at 30° C. in 384-wells black-bottom microplates in polypropylene (Greiner Bio-One, Belgium) and with orbital agitation (1000 rpm).

[10] = target: T4, human cathepsin G (human, UniProt P08311 21-244); test: as above
T4 construct: also called hCG; CG
T4 sequence (looked up): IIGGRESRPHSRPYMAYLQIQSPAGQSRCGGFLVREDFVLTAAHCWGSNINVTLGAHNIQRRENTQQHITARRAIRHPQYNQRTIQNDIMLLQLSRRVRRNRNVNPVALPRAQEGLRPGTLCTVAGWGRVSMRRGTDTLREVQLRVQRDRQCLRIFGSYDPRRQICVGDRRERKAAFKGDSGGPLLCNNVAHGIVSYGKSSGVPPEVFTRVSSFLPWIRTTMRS
Protocol: as §2

[11] = target: T5, porcine pancreatic elastase (pig, UniProt P00772 27-266); test: as above
T5 construct: also called pPE; PPE
T5 sequence (P00772 27-266): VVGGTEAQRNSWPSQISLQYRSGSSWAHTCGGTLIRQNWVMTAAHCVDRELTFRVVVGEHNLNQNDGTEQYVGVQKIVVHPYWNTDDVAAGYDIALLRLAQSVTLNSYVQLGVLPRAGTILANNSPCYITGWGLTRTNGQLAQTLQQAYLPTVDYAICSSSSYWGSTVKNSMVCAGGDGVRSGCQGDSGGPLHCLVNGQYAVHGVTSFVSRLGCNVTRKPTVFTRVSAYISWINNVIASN
Protocol: as §2

[12] = target: T2, human neutrophil elastase; test: BLI (Octet HTX), biotinylated NbE201 on streptavidin sensor, hNE as analyte, global 1:1 fit, N=2
Protocol: FIG. 6. […] On the x-axis, the time in seconds. On the y-axis, the interference signal in nm. A vertical dashed line divides the association step from the dissociation step. […] Each curve (in black) represents measured data (□□) referring to a single concentration of hNE used: 25 nM, 6.25 nM, 3.125 nM, 1.563 nM and 0.753 nM (from top to bottom). In grey, is represented the fitting of the data from which the KD value and kinetic parameters were derived. Data were fitted accordingly to a 1:1 ligand model by using the Data Analysis Octet Software Version 10.0 (Satorius). Independent replicates of the experiment were done (N=2) and the mean (±st. dev.) of the kinetics parameters measured and indicated in Table 2.
as §1

- Ki [1]: 38.8 nM
- IC50, inhibition of hydrolysis of N-Succinyl-Ala-Ala-Ala-paraNitroAnilide by hNE (50 nM) [2]: 38.3 nM
- IC50, inhibition of hydrolysis of MeOSuc-Ala-Ala-Pro-Val-AMC by mNE (14.7 nM) [3]: 49.4 nM
- inhibition of protease activity at NbE201:enzyme ratio of 60 [4]: 20%
- IC50, inhibition of elastin hydrolysis by hNE (132 nM) [5]: 488 nM
- fold inhibitory activity relative to mNE [5]: ~10 fold
- molar ratio inhibitor:hNE for total elastase inhibition in vitro [5]: 3 NbE201:hNE molar ratio
- Ki [6]: 4.1 nM
B1: NbE201 (VHH)
VHH: QVQLQESGGGLVQAGGSLRLSCVVPGRTISLYRMGWFRQAPGKEREFVAGINWSGDMTDYVDSVKGRFTISRDNAKNTVYLEMNSLKPEDTAIYYCTADPKLLPLADSSYGYWGQGTQVTVSS
notes: Llama VHH made in the periplasm of E. coli WK6 (pHEN6 vector) and purified by IMAC; This form was used in the enzymatic assays and for crystallisation; also called NbE201 wt; NbE201-WT

- Kd [7]: 49 nM
- koff [7]: 0.019 s⁻¹
- kon [7]: 390000 M⁻¹ s⁻¹
- fold affinity relative to mNE [8]: ~10 fold
- binding result [9]: no binding (tested: 50 nM)
- binding result [10]: no binding (tested: 50 nM)
- binding result [11]: no binding (tested: 50 nM)
- Kd [12]: 1.3 nM
- koff [12]: 0.0032 s⁻¹
- kon [12]: 2.6e+06 M⁻¹ s⁻¹
B2: biotinylated NbE201 (VHH)
VHH: B1 VHH
modifications: C-terminal Cys biotinylated with EZ-Link Maleimide-PEG2-Biotin
notes: Form immobilised on streptavidin sensors in all BLI experiments; It was produced in the pHEN25 vector and biotinylated site-specifically on its C-terminal Cys; also called NbE201_Cter Biot; biotinylated ISVD NbE201

Source: patent US20260209387A1, “SINGLE-DOMAIN ANTIBODY FOR INHIBITION OF NEUTROPHIL ELASTASE ACTIVITY” (UNIVERSITE DE LIEGE, priority 2023, published 2026)
